Paper PMC7849420 (Virology, 2021)

T1: recombinant truncated HuCoV-NL63 nucleocapsid (N) protein AA100-377 (HuCoV-NL63, UniProt Q6Q1R8 100-377)
T1 sequence: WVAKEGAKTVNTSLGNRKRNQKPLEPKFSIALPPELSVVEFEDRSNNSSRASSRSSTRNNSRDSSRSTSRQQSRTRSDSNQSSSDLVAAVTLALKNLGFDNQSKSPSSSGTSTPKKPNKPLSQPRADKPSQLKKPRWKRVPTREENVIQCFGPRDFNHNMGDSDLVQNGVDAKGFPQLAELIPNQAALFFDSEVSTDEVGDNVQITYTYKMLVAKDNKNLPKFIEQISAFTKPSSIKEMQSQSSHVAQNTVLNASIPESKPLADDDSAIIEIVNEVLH


How the values were obtained:
Assay in all cases: ELISA
[1] = target: recombinant truncated SARS-CoV-2 nucleocapsid (N) protein AA133-419 (SARS-CoV-2, UniProt P0DTC9 133-419)
[2] = target: T1, recombinant truncated HuCoV-NL63 …
[3] = target: recombinant truncated SARS-CoV nucleocapsid (N) protein AA133-422 (SARS-CoV, UniProt P59595 133-422)
[4] = target: recombinant truncated SARS-CoV nucleocapsid (N) protein AA133-422 (SARS-CoV, UniProt P59595)
[5] = target: recombinant truncated HuCoV-NL63 nucleocapsid (N) protein AA100-377 (HuCoV-NL63, UniProt Q6Q1R8)
[6] = target: recombinant truncated SARS-CoV-2 nucleocapsid (N) protein AA133-419 (SARS-CoV-2, UniProt P0DTC9)

Binder | Corected Average (background-corrected A450) [1] [absorbance at 450nm] | Corected Average (background-corrected A450) [2] [absorbance at 450nm] | Corected Average (background-corrected A450) [3] [absorbance at 450nm] | Corected Average (background-corrected A450) [4] [absorbance at 450nm] | Corected Average (background-corrected A450) [5] [absorbance at 450nm] | Corected Average (background-corrected A450) [6] [absorbance at 450nm]
mBG17 mouse monoclonal antibody against SARS-CoV-2 nucleocapsid protein (antibody, V domains shown) VH: EVKLEESGGGLVQPGGSMKFSCVASGFTFSDYWMNWVRQSPDKGLEWVAEIRLKSNNYATHYAASVKGRFTISRDDSKSSVYLQMNNLRAEDSGIYYCTRSAMDYWGQGTSVTVSS VL: DIVMSQSPSSLAVSVGEKITMSCKSSQSLLYTSDQKNYLAWFQQKPGQSPKLLIFWASTRDSGVPDRFTGSGSGTDFTLTISSVKAEDLAVYYCQQFYNYPRTFGGGTKLEIK | 0.832 | 0.365 | 0.872 |  |  | 
mBG67 mouse monoclonal antibody against SARS-CoV-2 nucleocapsid protein (antibody, V domains shown) VH: EVQLVESGGGLVQPGGSLKLSCAASGFTFSNYGMSWVRQTPDKRLELVATINRNGGSTYYLDSVKVRFTISRDNAKSTLFLQLSSLKSDDTAMYYCARIYDFDEDYFDVWGAGTTVTVSS VL: QIVLTQSPAIMSASLGERVTMTCTASSSVSSSYLHWYQQKPGSSPKLWIYSTSNLASGVPARFSGSGSGTSYSLTISSMEAEDAATYYCLQYHRSPWTFGGGTKLEIK | 0.861 |  | 0.094 |  |  | 
mBG86 mouse monoclonal antibody against SARS-CoV-2 nucleocapsid protein (antibody, V domains shown) VH: EVQLVESGGGLVQPGGSLKLSCAASGFTFSNYGMSWVRQTPDKRLELVATINRNGGSTYYLDSVKVRFTISRDNAKSTLFLQMSSLKSEDTAMYYCARIYDYDEDYFDVWGAGTTVTVSS VL: QIVLTQSPAIMSASLGERVTMTCTASSSVSSSYLHWYQQKPGSSPKLWIYSTSNLASGVPARFSGSGSGTSYSLTISSMEAEDAATYYCLQYHRSPWTFGGGTKLEIK | 0.806 |  |  |  |  | 
mBG21 mouse monoclonal antibody against SARS-CoV-2 nucleocapsid protein (antibody, V domains shown) VH: QIQLVQSGPELKKPGETVKISCKASGYTFTDYSMHWVKQAPGKGSKWMGWINTETGEPTYADDFKGRFAFSLETSASTAYLQINNLKNEDTATYFCALRRWGQGTLVTVSA VL: IVMTQTPKFLLVSAGDRVTITCKASQSVSNDVAWFQQKPGQSPKLLIYFASNRYTGVPDRFTGSGYGTDFTFTITTVQAEDLAVYFCQQDYSSPWTFGGGTKLEIK |  |  |  | 0.302 | 0.339 | 0.743
mBG22 mouse monoclonal antibody against SARS-CoV-2 nucleocapsid protein (antibody, V domains shown) VH: QIQLVQSGPELKKPGETVKISCKASGYTFTDYSMHWVKQAPGKGSKWMGWINTETGEPTYADDFKGRFAFSLETSASTAYLQINNLKNEDTATYFCALRRWGQGTLVTVSA VL: IVMTQTPKFLLVSAGDRVTITCKASQSVSNDVAWFQQKPGQSPKLLIYFASNRYTGVPDRFTGSGYGTDFTFTITTVQAEDLAVYFCQQDYSSPWTFGGGTKLEIK |  |  |  | 0.779 | 0.339 | 0.754
